# Results as given in publication PMC12594171, “DKK3-LRP1 complex and a chemical inhibitor regulate Aβ clearance in models of Alzheimer’s disease” (Science Advances, 2025).
# Biological target: mLRPIV-HA, stably expressed in SH-SY5Y
# Assay: co-IP + ELISA; SH-SY5Y cells stably expressing mLRPIV-HA incubated with Aβ42 and 1 to 200 nM DKK1 or DKK3; mLRPIV-HA precipitated with anti-HA affinity gel; Aβ42 in the eluate by ELISA
binder,measurement,value
DKK1-Flag (ligand) TLNSVLNSNAIKNLPPPLGGAAGHPGSAVSAAPGILYPGGNKYQTIDNYQPYPCAEDEECGTDEYCASPTRGGDAGVQICLACRKRRKRCMRHAMCCPGNYCKNGICVSSDQNHFRGEIEETITESFGNDHSTLDGYSRRTTLSSKMYHTKGQEGSVCLRSSDCASGLCCARHFWSKICKPVLKEGQVCTKHRRKGSHGLEIFQRCYCGEGLSCRIQKDHHQASNSSRLHTCQRH,percent reduction of Aβ42 binding to mLRPIV at 20 nM DKK1,44%
